Test results: publication PMC7160673 (2020)
Like-named read-outs stand apart in the source and are kept apart here. Where no end group is shown, it is not given here. [ ]: non-standard residue; d: D form. The star is where a group is joined. 5FAM = O=C1OC2(c3ccc(O)cc3Oc3cc(O)ccc32)c2ccc(C(=O)*)cc21; Lys(Me3) = C[N+](C)(C)CCCC[C@H](N)C(=O)O

T1: M Phase Phosphoprotein 8 chromodomain (UniProt Q99549 55-116)
T1 chain: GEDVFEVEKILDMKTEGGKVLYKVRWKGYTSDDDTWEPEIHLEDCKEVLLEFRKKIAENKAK

T2: Chromodomain Y-like protein 2 chromodomain
T2 chain: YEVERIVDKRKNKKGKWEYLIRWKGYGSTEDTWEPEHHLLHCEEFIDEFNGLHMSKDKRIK


Legend:
Experiment in all cases: FP
[1] = target: T1, M Phase Phosphoprotein 8 chromodomain
[2] = target: T2, Chromodomain Y-like protein 2 …
[3] = target: T1, M Phase Phosphoprotein 8 chromodomain

Row | Binder | Kd [1] [µM] | Kd [2] [µM] | Kd [3] [µM]
1 | 5FAM-WAY[Lys(Me3)]TGK (also: flanking glycines, number not given here) [FAM-WAY(Kme3)TGK peptide] | 1.37 | – | –
2 | 5FAM-TAR[Lys(Me3)]STG (also: flanking glycines, number not given here) [FAM-TAR(Kme3)STG peptide (H3K9me3)] | – | 18.4 | 11.5
